Measured values from the supplement of paper PMC10567573.

B1: C10orf62 (parent)
chain: GHSHHSHHGHPSHQSHSLPNRRH

Variants of: B1
Assay: protein stability index of a GFP-peptide fusion (GPS, HEK-293T) (PSI 1-6); higher = more stable
Details: c terminus: native
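Further: lentivirally expressed fusions sorted by FACS into six bins by GFP to DsRed ratio, PSI derived from sequencing read proportions per bin multiplied by bin number.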

Protein stability index: each site, then its substitutions
H2: G 2.22, P 1.89, L 3.18, M 3.72, R 3.13, S 3.15, Q 3.15, E 2.36, T 3.56, A 3.05, Y 2.31
P11: G 3.85, I 4.55, M 1.92, F 2.29, C 4.84, T 2.56, D 2.88, N 2.98, Y 2.47, K 4.06, W 2.03, V 2.5
H10: A 3.41, C 3.79, G 2.34, R 3.48, E 1.48, W 3.14, T 2.53, D 1.74, I 2.96, Y 3.67, P 2.43, S 2.08, Q 3.81, K 2.86
H5: A 2.92, P 4.04, Y 3.13, E 2.3, N 2.35, S 2.38, D 3.54, G 2.33, F 3.95, C 3.11, K 1.69, T 3.1, I 2.64, L 2.65
H8: E 2.42, T 3.37, K 3.13, I 3.3, D 1.96, C 4, N 4.02, R 2.72, G 2.46, F 3.5, Y 3.29, A 5.15, P 1.38, Q 2.84
H16: D 3.54, F 3.84, E 1.78, C 2.19, S 3, G 3.63, I 3.15, P 2.52, W 3.05, A 2.55
S6: W 4, K 1.55, M 3.95, N 3.28, I 2.27, T 3.3, V 2.71, A 4.79, F 2.95, L 3.37, D 2.08, H 4.03, E 1.84, R 2.98
N20: P 2.07, D 3.58, M 3.84, Q 1.94, V 3.13, F 2.31, G 4.22, K 3.23, L 3.05, H 2.44, A 2.97, E 4.47, S 1.35, I 2.29, Y 2.58, T 3.28
G9: T 1.87, S 2.37, D 2.41, C 4.56, F 3.35, E 3.5, W 3.1, L 2.26, N 2.82, H 3.58, V 3.15, K 3.76, Q 2.3, I 4.14, A 2.81
R21: C 4.2, E 2.81, S 1.67, V 1.39, L 1.81, A 1.97, N 2.6, I 2.36, H 2.67, K 1.94, F 2.13, W 2.43, G 1.71, D 2.2, P 2.05, Q 2.38
P19: K 2.15, H 2.4, L 2.28, C 2.95, G 2.35, D 3.02, T 4.47, R 2.09, N 2.4, Y 3.05, Q 2.38, E 2
H23: Q 2.48, V 2.35, I 2.78, A 2.23, T 2.88, N 3.15, W 2.25, S 2.88, Y 3.4, R 4.71, M 2.18, K 4.73, L 3.52
G1: A 4.7, T 2.66, I 3.33, D 2.81, P 3.63, S 2.81
